Experimental data as given in patent publication US20140056960A1, “Methods for Improving Fracture Healing and Bone Formation” (Imperial Innovations Limited, priority 2010, published 2014).
“Also recorded” adds a separate entry of the source.

Columns and labels:
PBMCs [1] = assay: TNF-α production by PBMCs (ELISA, 14 hours); assay type: cell-based, human; conditions: PBMCs 1*10^5/ml, 10% FCS, alarmin at indicated doses
Method: FIG. 10. […] (A) PBMCs at 1*10^5/ml were incubated in 10% fetal calf serum (FCS) with S100 A8 at indicated doses. […] (B) PBMCs at 1*10^5/ml were incubated in 10% FCS with S100 A8 at 0.5 μg/ml with the addition of either antibody to TLR4, TLR2 or isotype controls (not shown), or sRAGE over 14 hours. TNF-α levels were determined by ELISA.
FIG. 12. […] PBMCs at 1*10^5/ml were incubated in 10% FCS with S100 A8, S100 A9 or S100 A12 at the indicated doses over 14 hours. TNF-α levels were determined by ELISA.
FIG. 17. […] PBMCs at 1*10^5/ml were incubated in 10% FCS with HMGB1 or LPS at the indicated doses over 14 hours; TNF-α levels were determined by ELISA.

tibial fracture = assay: murine tibial fracture model: callus mineralization (microCT) and histology after local administration at fracture site; assay type: in vivo, mouse; conditions: exogenous alarmin at fracture site days 0 and 1 (rmHMGB1 20 μL at 50 ng/ml); day 28 microCT
Method: Percentage callus mineralization was determined from the fracture site to 1 mm proximally (mean+/−SEM). FIG. 5. Dose response of exogenous TNF-α in vivo. 20 μL of PBS with rhTNF-α at the corresponding dose was injected at the fracture site at days 0 and 1 in C57BI/6 mice. At day 28, mice were harvested and limbs scanned by microCT in a blinded fashion. Percentage callus mineralization was determined from the fracture site to 1 mm proximally (threshold density of 350 mg/cm^3). * p<0.05, ** p<0.01. FIG. 7A. […] Percentage callus mineralization was determined from the fracture site to 1 mm proximally (mean+/−SEM). FIG. 18. […] C57BI6 mice were subjected to fracture model with addition of 20 μL of rmHMGB1 at 50 ng/ml at the fracture site at days 0 and 1 compared to controls. Addition of exogenous S100A8 or S100A9 or S100A8/9 had no effect, possibly because the fracture environment may already contain optimal amounts of S100 A8 or A9 proteins. All mice were harvested at day 28 and limbs scanned by microCT in a blinded fashion. Percentage callus mineralization was determined from the fracture site to 1 mm proximally (mean+/−SEM). […] Inflammation plays a vital role in early fracture repair^11,12. In murine models, TNF-α, IL-1 and IL-6 are expressed at the fracture site within 24 hours of injury^13,14. Biphasic expression of TNF-α and IL-1β appears to be linked to the initiation of fracture repair and later to endochondral maturation^14,15. In our murine model, callus mineralization at day 28 was enhanced when TNF-α, at a concentration of 50 ng/kg was injected locally following injury (day 0) and 24 hours later.

[2] = system: muscle derived stromal cells (MDSCs); assay: osteogenic activity of supernatant from stimulated PBMCs: alkaline phosphatase in MDSCs over 7 d; assay type: cell-based, human; conditions: S100 A8 at indicated doses (μg/ml) or LPS 10 ng/ml; MDSCs 7 d
Method: FIG. 15. Supernatant from PBMCs stimulated with S100A8 but not LPS is osteogenic. PBMCs at 1*10^5/ml were stimulated with S100 A8 at indicated doses (μg/ml), or LPS at 10 ng/ml. The supernatants were harvested and filter-sterilised through a 0.2 μm filter. MDSCs were cultured in this S100 A8-stimulated supernatant over 7 d and alkaline phosphatase levels quantified.
FIG. 16. Osteogenic activity of supernatant from human monocytes exposed to varying doses of LPS.

PBMCs [3] = assay: IL-6 and IL-1β production by PBMCs stimulated with S100 A8 (ELISA); assay type: cell-based, human; conditions: S100 A8 0.5 μg/ml with antibody to TLR4, TLR2 or sRAGE, 14 hours
Method: FIG. 13. […] PBMCs at 1*10^5/ml were incubated in 10% FCS with S100 A8 0.5 μg/ml with the addition of either antibody to TLR4, TLR2 or isotype controls, or sRAGE over 14 hours. IL-6 (A) and […] (B) levels were determined by ELISA.

B1: S100A8: alarmin; rhS100A8 added to human PBMCs (protein, UniProt P05109 1-93, looked up)
Protein S100-A8: MLTELEKALNSIIDVYHKYSLIKGNFHAVYRDDLKKLLETECPQYIRKKGADVWFKELDINTDGAVNFQEFLILVIKMGVAAHKKSHEESHKE
TNF-α production by PBMCs (PBMCs [1]; listed as S100 A8): stimulates monocytes to produce TNF-α in a dose dependent manner; also recorded: dose-dependent increase in TNF-α production
TNF-α production by PBMCs (PBMCs [1]; listed as rhS100A8): resulted in production of TNF-α
fracture healing / percentage callus mineralization (tibial fracture): no effect
osteogenic activity of stimulated PBMC supernatant (alkaline phosphatase) [2]: led to osteogenesis; also recorded: osteogenic
receptor dependence of IL-6 and IL-1β production (PBMCs [3]): produced by monocytes via TLR4 and also RAGE, but not TLR2
